Reference: paper PMC8998802 (2019)

Assays:
Experiment in all cases: microscale thermophoresis
[1] = target: T1, CaV1.1 AID peptide AID (UniProt Q13698, IPPQ present)
T1 chain: QQLDEDLRGYMSWITQGE

[2] = target: T2, CaV1.1 AID peptide AID (UniProt Q13698)
T2 chain: QQLDEDLRGYMSWITQGE

[3] = target: T3, CaV2.1 AID peptide AID (UniProt O00555, IPPQ present)
T3 chain: QQIERELNGYMEWISKAE

[4] = target: T4, CaV2.1 AID peptide AID (UniProt O00555)
T4 chain: QQIERELNGYMEWISKAE

[5] = target: T5, CaV2.2 AID peptide AID (UniProt Q00975, IPPQ present)
T5 chain: QQIERELNGYLEWIFKAE

[6] = target: T6, CaV2.2 AID peptide AID (UniProt Q00975)
T6 chain: QQIERELNGYLEWIFKAE

Kd [1]: 51 nM | Kd [2]: 24 nM | Kd [3]: 93 nM | Kd [4]: 18.3 nM | Kd [5]: 208 nM | Kd [6]: 12 nM
B1: CaVβ2 (protein)
chain: not shown
